Experiments:
[1] = target: encapsulin (MSMEI_5672) from Mycobacterium smegmatis mc^2155 with C-terminal Strep-tag (Mycobacterium smegmatis mc^2155); assay: AF4-MALS
[2] = target: Human Epidermal Growth Factor Receptor 2 (human (endogenous in SKOV-3)) (UniProt P04626); assay: flow cytometry on cells

eGFP with C-terminal encapsulin localization sequence
stoichiometry N (eGFP molecules per nanocompartment) [1]: 17

tandem cytosine deaminase with C-terminal encapsulin localization sequence (enzyme)
stoichiometry N (tdCD molecules per nanocompartment) [1]: 18.7

^ZHEREnc{eGFP}: encapsulin nanocompartment with ZHER_(2:342) affibody-decorated shell, loaded with eGFP (complex)
fold MFI elevation [2]: 62 fold

Source: doi:10.1101/2025.09.11.675605
